Measured values: publication PMC6533540, “DprA Is Essential for Natural Competence in Riemerella anatipestifer and Has a Conserved Evolutionary Mechanism”

B1: dsDNA annealed from RA-ssDNA1 (dsDNA)
DNA 1: TAGGCTCTGCTAAGGAAGCGTGGGGTCTGTCTAAGTTGGA
DNA 2: TCCAACTTAGACAGACCCCACGCTTCCTTAGCAGAGCCTA

Biological target: T1, DprA (DprARa) (Riemerella anatipestifer ATCC11845, UniProt E4TBU2 1-367)
T1 sequence: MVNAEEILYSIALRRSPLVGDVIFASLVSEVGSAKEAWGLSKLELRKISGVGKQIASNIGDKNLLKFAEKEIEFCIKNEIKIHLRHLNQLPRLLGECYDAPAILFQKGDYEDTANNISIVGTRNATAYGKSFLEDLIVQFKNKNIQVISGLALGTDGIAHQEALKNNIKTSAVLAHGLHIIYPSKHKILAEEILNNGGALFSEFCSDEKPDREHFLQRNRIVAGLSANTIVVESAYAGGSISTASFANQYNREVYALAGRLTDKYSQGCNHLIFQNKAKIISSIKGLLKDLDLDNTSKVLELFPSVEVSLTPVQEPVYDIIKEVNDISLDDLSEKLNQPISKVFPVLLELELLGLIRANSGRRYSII
Test: EMSA; 1-20 uM DprA; 25 mM HEPES pH 7.0, 150 mM NaCl, 10% glycerol, 1 mM DTT, 0.05% IGEPAL, 30 min at 30 C; 8% native PAGE in 0.5x TBE on ice
Settings: protein: recombinant, tags: C-terminal His6, chain copies: 2, label: biotin

Binder | binding result | binding result (blunt)
TAGGCTCTGCTAAGGAAGCGTGGGGTCTGTCTAAGTTGGA (ssDNA) [RA-ssDNA1] | binds | 
AAAAACTACGGAACTGACTAAAGGCAGAAAAACTAAACGG (ssDNA) [RA-ssDNA2] | binds | 
B1 |  | binds
